Results published in patent US10184116B2, “Chimeric genes for the catalytic protein of Oplophorus luciferase and use thereof” (JNC CORPORATION, priority 2014, dated 2019).

Legend:
[1] = Luminescence activity of ZZ-fused WNanoKAZ mutants in crude enzyme solution (Example 10); format: biochemical; conditions: coelenterazine substrate; for Relative luminescence activity (Imax): ZZ-fused, pCold-ZZ-P- vector in E. coli, KAZ = 1.0
Experimental: In order to express ZZ-fused KAZ mutants in E. coli, the recombinant plasmid produced in EXAMPLE 8 and pCold-ZZ-P-WNanoKAZ produced in EXAMPLE 1 were used. The crude enzyme solution was prepared in a manner similar to EXAMPLE 2, using the E. coli BL21 strain (Novagen, Madison, Wis.) as a host cell. Then, 5 μL of the crude enzyme solution obtained was subjected to SDS-PAGE analysis to confirm the protein expression in all mutants. In FIG. 1, M and 1 to 8 represent as follows. M: molecular weight size markers; 1: ZZ-P-KAZ; 2: ZZ-P-WNanoKAZ; 3: ZZ-P-WNanoKAZ-V90I; 4: ZZ-P-WNanoKAZ-E115P; 5: ZZ-P-WNanoKAZ-K124Q; 6: ZZ-P-WNanoKAZ-I138Y; 7: ZZ-P-WNanoKAZ-R166N; 8: ZZ-P-dnKAZ. It was confirmed from FIG. 1 that all mutants were expressed.
(§1) DTT was added to the crude enzyme solution obtained in EXAMPLE 9 at a final concentration of 1 mM, and then allowed to stand in an ice-water bath over 8 hours or more. After 1 μL of the crude enzyme solution was added to 100 μL of 30 mM Tris-HCl (pH 7.6)-10 mM EDTA (Wako Pure Chemical Industries, Ltd.) containing 1 μg of coelenterazine (manufactured by JNC Corp.), a luminescence reaction was started. Luminescence activity was measured for 60 seconds using a luminometer (manufactured by Atto Inc.: AB2200). The maximum intensity of luminescence (Imax) was given as a relative luminescence activity (rlu).

[2] = Luminescence activity of WNanoKAZ in crude enzyme solution (Example 3); format: biochemical; conditions: for Relative luminescence activity (Imax): pCold-ZZ-P- vector in E. coli, KAZ = 1.0
Experimental: In order to express WNanoKAZ in E. coli, pCold-ZZ-P-WNanoKAZ obtained in EXAMPLE 1 was used. The E. coli BL21 strain (Novagen, Madison, Wis.) was used as a host cell. The BL21 strain carrying the recombinant plasmid was incubated in 5 mL of Luria-Bertani medium (hereinafter designated as LB medium) containing ampicillin (50 μg/mL) at 37° C. for 17 hours. The seed culture of 0.1 mL was inoculated to 10 mL of LB medium and incubated for 3 hours, followed by cooling in freezing water for 1 hour. IPTG was added to the culture medium at a final concentration of 0.1 mM, followed by incubation at 15° C. for further 19 hours. After completion of the incubation, 1 mL of the culture medium was collected by centrifugation at 10,000 rpm for 2 minutes. The collected E. coli cells were suspended in 0.5 mL of 30 mM Tris-HCl (pH 7.6)-10 mM EDTA. The cells were disrupted by sonication for 3 seconds using a Branson Model 250 Sonifire (Danbury, Conn.) to give a crude enzyme solution. Then, DTT was added to the crude enzyme solution at a final concentration of 1 mM. After the mixture was allowed to stand in freezing water over 8 hours or more, the luminescence activity was measured.
1 μl of the crude enzyme solution obtained in EXAMPLE 2 was added to 100 μl of 30 mM Trix-HCl (pH 7.6)-10 mM EDTA (Wako Pure Chemical Industries, Ltd.) containing 1 μg of coelenterazine (manufactured by JINC Corp.), luminescence reaction was started. Luminescence activity was measured for 60 seconds using a luminometer (manufactured by Atto Inc.: AB2200); the maximum intensity of luminescence (Imax) was given as a relative luminescence activity.

CHO-K1 cells [3] = experiment: Luminescence activity of WNanoKAZ mutants expressed by secretory expression vectors in animal culture cells (Example 13); format: cell-based, Chinese hamster; conditions: pcDNA3-GLsp- secretory vector, coelenterazine substrate
Experimental: (§2) Chinese hamster ovary cell line CHO-K1 was cultured in Ham's F-12 medium (manufactured by Wako Pure Chemical Industries, Ltd.) supplemented with 10% (v/v) fetal bovine serum (manufactured by Biowest Inc.). The CHO-K1 cells were seeded in a 6-well plate in 1×10^5 cells/well/2 mL medium (n=2) and cultured in an incubator at 37° C. in 5% (v/v) CO2. After 24 hours, the purified recombinant plasmid was transfected to CHO-K1 cells using a FuGene HD transfection kit (manufactured by Promega Corp.) and the cells were used for subsequent experiment. Specifically, 1 μg of the recombinant plasmid, 0.1 μg of the internal standard vector pGL4.13 [Luc2/sv40] and 3 μL of FuGene HD were added to 100 μL of the medium and allowed to stand at room temperature for 15 minutes. Subsequently, 100 μL of the DNA-FuGene complex solution was added to the cells in the 6-well plate. After incubation for 46 hours, the culture medium was collected. On the other hand, the KAZ mutant expressed in the cells was washed 3 times with 3 mL of 1×PBS, then suspended in 1 mL of 1×PBS and disrupted by sonication on ice. The resultant cell extract of WNanoKAZ was used as the enzyme solution.
(§3) After adding 5 μL of the culture medium and cell extract obtained in EXAMPLE 5 to 100 μL of 30 mM Tris-HCl (pH 7.6)-10 mM EDTA (Wako Pure Chemical Industries, Ltd.) containing 1 μg of coelenterazine (manufactured by JNC Corp.), a luminescence reaction was started. Luminescence activity was measured for 60 seconds using a luminometer (manufactured by Atto Inc.: AB2200). The maximum intensity of luminescence (Imax) was given as a percentage (%).
The recombinant plasmid obtained in EXAMPLE 12 or 4 was purified in a manner similar to EXAMPLE 5 and dissolved in sterile water. The firefly luciferase vector (pGL4.13 [Luc2/sv40]: manufactured by Promega Corp.) was similarly prepared and used as an internal standard.
Culture medium containing two amino acid-substituted KAZ mutants and three amino acid-substituted KAZ mutants and cell extracts of the KAZ mutants as the enzyme solutions were prepared by the same procedure as in EXAMPLE 9.
The resultant culture medium and cell extracts were used to measure luminescence activity as in EXAMPLE 6.

[4] = Substrate specificity of WNanoKAZ mutants, crude enzyme solution (Example 11); format: biochemical; conditions: for Relative luminescence activity, 6h-CTZ, Imax / Relative luminescence activity, 6h-CTZ, Int.: substrate 6h-CTZ; for Relative luminescence activity, 6h-f-CTZ, Imax / Relative luminescence activity, 6h-f-CTZ, Int.: substrate 6h-f-CTZ; for Relative luminescence activity, CTZ, Imax / Relative luminescence activity, CTZ, Int.: substrate CTZ
Experimental: as §1
Each of the coelenterazine analogues used for substrate specificity studies was synthesized by the methods described in publications. Specifically, bis-coelenterazine was synthesized by the method described in Nakamura et al. (1997) Tetrahedron Lett. 38: 6405-6406, furimazine by the method described in Hall et al. (2012) ACS Chem. Biol. […], and, 6h-coelenterazine, f-coelenterazine and 6h-f-coelenterazine by the method described in Inouye et al (2013) Biochem. Biophys. Res. Commun. 437: 23-28. Luminescence activity was measured by the same method as in EXAMPLE 10, using the crude enzyme solution obtained in EXAMPLE 10, in which coelenterazine or its analogue was used as the luminescence substrate.

CHO-K1 cells [5] = experiment: Luminescence activity of KAZ mutants expressed in animal cultured cells, culture medium and cell extract (Example 6); format: cell-based, Chinese hamster; conditions: pcDNA3-GLsp- vector in CHO-K1, coelenterazine substrate
Experimental: as §2, §3

[6] = crude enzyme solution, coelenterazine substrate

Row | Molecule | Relative luminescence activity (Imax) [1] | Relative luminescence activity (Imax) [2, 6] | Relative luminescence activity (%, Imax) Cell extracts (CHO-K1 cells [3]) [%] | Relative luminescence activity (%, Imax) Culture medium (CHO-K1 cells [3]) [%] | Relative luminescence activity, Furimazine, Imax [4] | Relative luminescence activity, bis-CTZ, Imax [4] | Relative luminescence activity, f-CTZ, Imax [4] | Relative luminescence activity, h-CTZ, Imax [4] | Relative luminescence activity, Furimazine, Int. [4] | Relative luminescence activity, bis-CTZ, Int. [4] | Relative luminescence activity, f-CTZ, Int. [4] | Relative luminescence activity, h-CTZ, Int. [4] | Relative luminescence activity, 6h-CTZ, Imax [4] | Relative luminescence activity, 6h-CTZ, Int. [4] | Relative luminescence activity, 6h-f-CTZ, Imax [4] | Relative luminescence activity, 6h-f-CTZ, Int. [4] | Relative luminescence activity, CTZ, Imax [4] | Relative luminescence activity, CTZ, Int. [4] | Relative luminescence activity (%, Imax) Cell extracts (CHO-K1 cells [5]) [%] | Relative luminescence activity (%, Imax) Culture medium (CHO-K1 cells [5]) [%] | other results
1 | WNanoKAZ: chimeric protein: positions 1-82 of native KAZ and 83-169 of nanoKAZ; SEQ ID NO: 6; I90V, P115E, Q124K, Y138I, N166R (protein, chimeric protein: positions 1-82 of native KAZ and 83-169 of nanoKAZ; I90V, P115E, Q124K, Y138I, N166R) FTLADFVGDWQQTAGYNQDQVLEQGGLSSLFQALGVSVTPIQKVVLSGENGLKADIHVIIPYEGLSGFQMGLIEMIFKVVYPVDDHHFKVILHYGTLVIDGVTPNMIDYFGRPYEGIAVFDGKKITVTGTLWNGNKIIDERLINPDGSLLFRVTINGVTGWRLCERILA | 64 | 64 | 22 | <0.01 | 26 | 32 | 48 | 64 | 29 | 24 | 32 | 33 | 8.9 | 7.5 | 41 | 34 | 64 | 56 | 22 | <0.01 | fold higher activity than native KAZ ([1]; Imax): 64 fold; fold higher activity than the relative activity 7.4 of dnKAZ ([1]; Imax): 8.6 fold; fold higher activity than that of dnKAZ ([2]; coelenterazine used as the substrate, as shown in EXAMPLE 3): 64 fold; fold higher activity than native KAZ ([2]; crude enzyme solution, coelenterazine substrate, Imax): 64 fold; fold higher activity than the other coelenterazine analogues when coelenterazine was used as the substrate ([4]; coelenterazine substrate): 8.6 fold
2 | KAZ: 19 kDa protein of native Oplophorus luciferase having luminescence activity; SEQ ID NO: 2 (protein, listed as Oplophorus gracilirostris) FTLADFVGDWQQTAGYNQDQVLEQGGLSSLFQALGVSVTPIQKVVLSGENGLKADIHVIIPYEGLSGFQMGLIEMIFKVVYPVDDHHFKIILHYGTLVIDGVTPNMIDYFGRPYPGIAVFDGKQITVTGTLWNGNKIYDERLINPDGSLLFRVTINGVTGWRLCENILA | 1.0 | 1.0 | 0.2 | 0.1 | 0.2 | 0.5 | 1.0 | 1.2 | 0.3 | 0.1 | 0.9 | 0.9 | 0.08 | 0.1 | 0.3 | 0.4 | 1.0 | 1.0 | 0.2 | 0.1 | –
